Patent publication US20030050434A1

Target: polyclonal rabbit antiserum raised against synthetic rat preptin conjugated to ovalbumin
Test: competitive radioimmunoassay, [125I]preptin tracer, antiserum 1:10,000, PEG-assisted second antibody separation

- EC20: 0.344 nM
- EC80: 0.039 nM
- minimum detectable concentration: 11.2 pM
B1: synthetic rat preptin (peptide)
peptide: DVSTSQAVLPDDFPRYPVGKFFKFDTWRQSAGRL
